Holding throughout (assay): BLI
(In general: BLI is a label-free optical method that tracks binding on a fibre tip over time.)

In data set [1] the target is T1, TtSSB (Thermus thermophilus, UniProt Q5SLP9 1-263).
T1 sequence: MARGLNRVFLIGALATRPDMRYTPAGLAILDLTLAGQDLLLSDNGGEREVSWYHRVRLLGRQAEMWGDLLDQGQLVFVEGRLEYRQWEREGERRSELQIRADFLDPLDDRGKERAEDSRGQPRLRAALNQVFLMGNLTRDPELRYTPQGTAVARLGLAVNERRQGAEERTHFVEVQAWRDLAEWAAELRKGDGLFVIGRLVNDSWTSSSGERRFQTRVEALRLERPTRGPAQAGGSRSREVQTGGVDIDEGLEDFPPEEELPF

Data set [2] has as its target T2, TtRecR (Thermus thermophilus, UniProt Q5SHY0 1-194).
T2 sequence: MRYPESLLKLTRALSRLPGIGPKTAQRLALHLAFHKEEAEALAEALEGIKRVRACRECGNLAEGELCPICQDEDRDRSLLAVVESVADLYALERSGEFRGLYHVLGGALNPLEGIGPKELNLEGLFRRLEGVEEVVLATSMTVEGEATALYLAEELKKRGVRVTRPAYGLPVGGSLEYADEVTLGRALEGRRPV

For data set [3], the target named is T3, TtRecF D57C;TtRecR (Thermus thermophilus;Thermus …, UniProt Q5SLM9;Q5SHY0 1-343;1-194, D57C|).
T3 sequence 1: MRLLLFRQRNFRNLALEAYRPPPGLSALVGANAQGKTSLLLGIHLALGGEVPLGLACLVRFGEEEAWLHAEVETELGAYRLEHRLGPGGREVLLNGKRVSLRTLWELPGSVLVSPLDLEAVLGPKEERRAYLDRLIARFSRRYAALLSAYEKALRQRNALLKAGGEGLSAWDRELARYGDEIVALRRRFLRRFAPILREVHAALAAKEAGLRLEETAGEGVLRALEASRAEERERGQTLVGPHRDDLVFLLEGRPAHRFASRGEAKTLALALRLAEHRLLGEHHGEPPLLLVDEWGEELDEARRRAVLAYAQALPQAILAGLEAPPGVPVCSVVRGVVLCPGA
T3 sequence 2: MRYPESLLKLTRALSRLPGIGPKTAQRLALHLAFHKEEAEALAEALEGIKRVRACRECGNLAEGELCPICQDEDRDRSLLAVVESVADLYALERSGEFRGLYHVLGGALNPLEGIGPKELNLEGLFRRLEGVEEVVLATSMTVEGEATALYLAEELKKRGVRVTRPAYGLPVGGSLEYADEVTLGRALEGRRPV

The target in data set [4] is T4, TtRecF S261C;TtRecR (Thermus thermophilus;Thermus …, UniProt Q5SLM9;Q5SHY0 1-343;1-194, S261C|).
T4 sequence 1: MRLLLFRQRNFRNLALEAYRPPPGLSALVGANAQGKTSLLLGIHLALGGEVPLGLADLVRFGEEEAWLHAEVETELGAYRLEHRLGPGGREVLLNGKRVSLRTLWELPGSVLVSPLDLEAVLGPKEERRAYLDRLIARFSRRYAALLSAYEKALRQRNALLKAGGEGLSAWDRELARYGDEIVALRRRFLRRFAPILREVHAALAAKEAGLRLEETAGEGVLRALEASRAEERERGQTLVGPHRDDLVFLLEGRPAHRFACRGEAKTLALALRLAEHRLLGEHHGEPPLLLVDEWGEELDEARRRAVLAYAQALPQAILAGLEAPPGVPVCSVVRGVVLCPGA
T4 sequence 2: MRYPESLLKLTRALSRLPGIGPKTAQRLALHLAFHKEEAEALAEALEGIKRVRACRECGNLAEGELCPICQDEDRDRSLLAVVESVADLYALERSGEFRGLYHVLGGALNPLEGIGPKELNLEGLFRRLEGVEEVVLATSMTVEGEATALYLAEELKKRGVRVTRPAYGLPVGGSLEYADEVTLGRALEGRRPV

For data set [5], the target named is T5, TtRecR G169C (Thermus thermophilus, UniProt Q5SHY0 1-194, G169C).
T5 sequence: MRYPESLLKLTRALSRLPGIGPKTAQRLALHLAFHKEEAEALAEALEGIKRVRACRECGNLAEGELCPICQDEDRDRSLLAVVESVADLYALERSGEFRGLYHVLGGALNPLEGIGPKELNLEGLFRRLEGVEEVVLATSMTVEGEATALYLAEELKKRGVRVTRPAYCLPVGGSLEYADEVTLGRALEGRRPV

For data set [6], the target named is T6, TtRecF S261C (Thermus thermophilus, UniProt Q5SLM9 1-343, S261C).
T6 sequence: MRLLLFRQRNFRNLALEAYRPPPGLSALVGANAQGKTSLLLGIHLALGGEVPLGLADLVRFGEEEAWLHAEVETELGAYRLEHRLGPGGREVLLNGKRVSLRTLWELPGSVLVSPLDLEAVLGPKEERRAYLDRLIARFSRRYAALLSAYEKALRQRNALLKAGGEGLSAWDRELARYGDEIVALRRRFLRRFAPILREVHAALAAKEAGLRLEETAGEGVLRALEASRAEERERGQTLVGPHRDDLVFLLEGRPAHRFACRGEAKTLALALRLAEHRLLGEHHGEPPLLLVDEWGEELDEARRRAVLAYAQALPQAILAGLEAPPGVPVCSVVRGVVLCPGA

Data set [7] concerns the target T7, TtRecF D57C (Thermus thermophilus, UniProt Q5SLM9 1-343, D57C).
T7 sequence: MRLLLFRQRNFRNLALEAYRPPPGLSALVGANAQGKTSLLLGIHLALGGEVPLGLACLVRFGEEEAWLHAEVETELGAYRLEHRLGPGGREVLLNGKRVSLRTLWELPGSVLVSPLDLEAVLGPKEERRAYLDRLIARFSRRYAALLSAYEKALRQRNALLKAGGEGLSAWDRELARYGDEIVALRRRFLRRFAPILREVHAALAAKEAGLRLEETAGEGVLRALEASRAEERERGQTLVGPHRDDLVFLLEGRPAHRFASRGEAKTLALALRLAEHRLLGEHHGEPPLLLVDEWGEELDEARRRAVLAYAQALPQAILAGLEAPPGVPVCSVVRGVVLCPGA

In general, Kd refers to the equilibrium constant for the complex coming apart. A lower Kd goes with tighter binding. For GCAATGAAGTACGCTTGCCAGCTGCAGTCATGATTG (ssDNA) [biotinylated 36-mer ssDNA], the dissociation constant Kd in data set [1] is about 0.0072 µM; in data set [6], 19.7 µM; in data set [7], 146 µM. The binding result in data set [2] is given as “no binding”; in data set [3], “binds”; in data set [4] it was “binds”; in data set [5], “binds”.

Source of the values: doi:10.1101/2019.12.17.877662 (bioRxiv, 2019).
